Results published in patent publication US6969760 (ST JUDE CHILDREN S RESEARCH HOSPITAL, dated 2005).

What was measured:
Assay in all cases: pull-down from DA3(EPOR) cell extracts on GST-EPOR cytoplasmic domain beads, immunoblot
c-fes = c-fes (UniProt P16879 1-822)
Protocol: (§1) The fusion proteins were purified by affinity binding to glutathione-sepharose beads and the proteins, on affinity beads, were incubated with extracts of unstimulated or EPO stimulated DA3(EPOR) cells. The bound proteins were recovered from the beads, resolved on SDS-PAGE and the gels blotted to nitrocellulose. The blots were subsequently probed with antisera against various tyrosine kinases.

murine Tec = target: T1, murine Tec (murine, UniProt P24604 1-630, limits assumed)
T1 sequence (looked up): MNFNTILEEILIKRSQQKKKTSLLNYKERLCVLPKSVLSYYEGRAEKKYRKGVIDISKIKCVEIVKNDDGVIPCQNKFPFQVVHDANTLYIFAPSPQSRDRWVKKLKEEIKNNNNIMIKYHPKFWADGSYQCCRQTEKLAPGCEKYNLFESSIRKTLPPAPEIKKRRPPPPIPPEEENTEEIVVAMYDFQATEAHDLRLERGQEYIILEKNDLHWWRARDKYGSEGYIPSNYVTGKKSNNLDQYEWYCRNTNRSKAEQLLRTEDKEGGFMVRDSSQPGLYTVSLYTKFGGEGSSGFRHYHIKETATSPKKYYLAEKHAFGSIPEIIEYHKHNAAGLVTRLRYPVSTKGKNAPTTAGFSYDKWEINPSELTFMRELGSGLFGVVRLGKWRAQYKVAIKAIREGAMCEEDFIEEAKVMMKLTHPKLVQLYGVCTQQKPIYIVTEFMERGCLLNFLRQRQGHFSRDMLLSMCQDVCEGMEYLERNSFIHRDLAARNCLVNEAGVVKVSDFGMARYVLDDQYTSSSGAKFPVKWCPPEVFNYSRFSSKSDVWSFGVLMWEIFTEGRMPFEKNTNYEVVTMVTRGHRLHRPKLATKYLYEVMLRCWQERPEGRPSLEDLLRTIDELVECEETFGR
Protocol: as §1

lyn = target: T2, lyn (UniProt P25911 2-512, limits assumed)
T2 construct: also called lyn kinase
Protocol: as §1

Measured: binding result

Chain of c-fes (P16879 whole entry, the tested form may be a part): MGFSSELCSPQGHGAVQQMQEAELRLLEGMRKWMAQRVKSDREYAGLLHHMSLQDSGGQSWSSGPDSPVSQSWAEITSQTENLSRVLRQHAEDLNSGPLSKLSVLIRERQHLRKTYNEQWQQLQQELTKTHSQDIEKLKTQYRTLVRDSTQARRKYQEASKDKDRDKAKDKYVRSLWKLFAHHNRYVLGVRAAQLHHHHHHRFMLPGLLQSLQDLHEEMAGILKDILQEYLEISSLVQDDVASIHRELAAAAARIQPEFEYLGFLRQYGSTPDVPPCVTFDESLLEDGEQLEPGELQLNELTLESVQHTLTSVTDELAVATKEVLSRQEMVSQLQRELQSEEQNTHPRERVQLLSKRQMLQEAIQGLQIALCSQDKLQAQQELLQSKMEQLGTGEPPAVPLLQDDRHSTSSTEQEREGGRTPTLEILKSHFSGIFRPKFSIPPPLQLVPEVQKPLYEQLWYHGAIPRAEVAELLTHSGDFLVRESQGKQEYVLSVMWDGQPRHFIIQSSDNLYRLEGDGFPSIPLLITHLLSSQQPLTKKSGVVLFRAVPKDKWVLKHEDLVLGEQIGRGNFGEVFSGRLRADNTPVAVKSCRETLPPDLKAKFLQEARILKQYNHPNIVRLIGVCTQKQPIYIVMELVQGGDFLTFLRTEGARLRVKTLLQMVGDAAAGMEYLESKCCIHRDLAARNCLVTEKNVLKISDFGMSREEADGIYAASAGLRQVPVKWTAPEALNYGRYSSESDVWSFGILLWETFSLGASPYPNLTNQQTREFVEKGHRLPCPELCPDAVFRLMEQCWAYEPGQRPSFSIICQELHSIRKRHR
T2 sequence (P25911 2-512 limits assumed): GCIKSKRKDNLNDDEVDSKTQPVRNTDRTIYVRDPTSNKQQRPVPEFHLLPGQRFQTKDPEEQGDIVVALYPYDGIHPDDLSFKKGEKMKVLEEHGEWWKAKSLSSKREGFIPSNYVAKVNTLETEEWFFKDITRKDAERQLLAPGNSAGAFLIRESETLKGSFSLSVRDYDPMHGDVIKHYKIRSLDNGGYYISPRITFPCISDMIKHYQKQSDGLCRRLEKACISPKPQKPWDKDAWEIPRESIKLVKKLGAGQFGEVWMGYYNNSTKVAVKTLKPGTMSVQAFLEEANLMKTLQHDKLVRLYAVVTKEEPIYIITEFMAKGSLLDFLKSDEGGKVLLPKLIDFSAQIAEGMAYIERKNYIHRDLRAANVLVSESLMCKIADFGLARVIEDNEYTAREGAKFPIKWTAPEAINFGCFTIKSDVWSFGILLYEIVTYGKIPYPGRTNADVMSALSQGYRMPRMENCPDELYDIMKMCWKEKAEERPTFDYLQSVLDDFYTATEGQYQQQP

B1: GST fusion protein containing the full length murine EPOR cytoplasmic domain (amino acids 257-483) (other, UniProt P14753 281-507, looked up)
chain: IWPGIPSPESEFEGLFTTHKGNFQLWLLQRDGCLWWSPGSSFPEDPPAHLEVLSEPRWAVTQAGDPGADDEGPLLEPVGSEHAQDTYLVLDKWLLPRTPCSENLSGPGGSVDPVTMDEASETSSCPSDLASKPRPEGTSPSSFEYTILDPSSQLLCPRALPPELPPTPPHLKYLYLVVSDSGISTDYSSGGSQGVHGDSSDGPYSHPYENSLVPDSEPLHPGYVACS
notes: range 257-483; Expressed in E. coli and immobilised on glutathione-sepharose; also called GST-EPOR fusion protein; fusion protein containing the complete cytoplasmic domain; not shown: amino-terminal glutathione-S-transferase (GST) domain encoded by pGEX-2T
no binding: all assays above
